Molecular target: demineralized, guanidine-extracted bovine collagen carrier matrix material (bovine) (UniProt P02453)
Experiment: OP-1 in 47.5% ethanol/0.01% TFA incubated 3 h with bovine collagen matrix; fraction bound to the matrix before lyophilization

Chain of OP-1 (P18075 293-431 limits assumed): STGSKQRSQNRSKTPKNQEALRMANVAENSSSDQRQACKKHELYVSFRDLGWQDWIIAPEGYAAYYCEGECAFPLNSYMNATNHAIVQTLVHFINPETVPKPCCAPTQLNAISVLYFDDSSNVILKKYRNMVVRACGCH

% OP-1 bound at 3 hr: 53 to 64%
Substance: OP-1 (from UniProt P18075 293-431) (ligand)

Source: US6461630
